Test [1] concerns the target Med15 1–651 Δ239–272, Δ373–483 (KIX123) (yeast) (UniProt P19659). Description: fluorescence polarisation.
Test [2] deals with Med15 158–651 Δ239–272, Δ373–483 (ABD123) (yeast) (UniProt P19659). Description: fluorescence polarisation.
For test [3], the target named is Med15 activator-binding domain 2 (ABD2; residues 277–368) (yeast) (UniProt P19659). Description: ITC + fluorescence polarisation.

“Gcn4 tandem activation domains (tAD; residues 1–134) (from UniProt P03069 1-134) (domain or fragment)” returned an increase of affinity over ABD123 in test [1] of 30%. Also, the fold higher affinity than the strongest piecemeal interaction in test [2] was 20 fold.

On to “Gcn4 central activation domain (cAD; residues 101–134) (from UniProt P03069 101-134) (domain or fragment)”, for which the equilibrium dissociation constant (Kd) in test [3] was determined as 150 µM.

The values are drawn from article doi:10.1101/221747.
